Results on one protein are retold here after patent US20110207796.

In this series the target is human alpha-synuclein (wild-type, recombinant).

B1: IKBKB (protein)
chain: MSWSPSLTTQTCGAWEMKERLGTGGFGNVIRWHNQETGEQIAIKQCRQELSPRNRERWCLEIQIMRRLTHPNVVAARDVPEGMQNLAPNDLPLLAMEYCQGGDLRKYLNQFENCCGLREGAILTLLSDIASALRYLHENRIIHRDLKPENIVLQQGEQRLIHKIIDLGYAKELDQGSLCTSFVGTLQYLAPELLEQQKYTVTVDYWSFGTLAFECITGFRPFLPNWQPVQWHSKVRQKSEVDIVVSEDLNGTVKFSSSLPYPNNLNSVLAERLEKWLQLMLMWHPRQRGTDPTYGPNGCFKALDDILNLKLVHILNMVTGTIHTYPVTEDESLQSLKARIQQDTGIPEEDQELLQEAGLALIPDKPATQCISDGKLNEGHTLDMDLVFLFDNSKITYETQISPRPQPESVSCILQEPKRNLAFFQLRKVWGQVWHSIQTLKEDCNRLQQGQRAAMMNLLRNNSCLSKMKNSMASMSQQLKAKLDFFKTSIQIDLEKYSEQTEFGITSDKLLLAWREMEQAVELCGRENEVKLLVERMMALQTDIVDLQRSPMGRKQGGTLDDLEEQARELYRRLREKPRDQRTEGDSQEMVRLLLQAIQSFEKKVRVIYTQLSKTVVCKQKALELLPKVEEVVSLMNEDEKTVVRLQEKRQKELWNLLKIACSKVRGPVSGSPDSMNASRLSQPGQLMSQPSTASNSLPEPAKKSEELVAEAHNLCTLLENAIQDTVREQDQSFTALDWSWLQTEEEEHSCLEQAS
For B1, the “in vitro kinase reaction, phosphorylation of alpha-synuclein” value is listed as “shown to be incapable of directly phosphorylating alpha-synuclein”.
